# From FireProtDB (doi:10.1093/protein/15.10.817)
# Values joined by “and” are separate entries in the source; they are usually repeats but may differ in a detail not shown here. Equal entries are not always repeated.
# B1: High mobility group protein B1, P63159 (parent)
# chain: MGKGDPKKPRGKMSSYAFFVQTCREEHKKKHPDASVNFSEFSKKCSERWKTMSAKEKGKFEDMAKADKARYEREMKTYIPPKGETKKKFKDPNAPKRPPSAFFLFCSEYRPKIKGEHPGLSIGDVAKKLGEMWNNTAADDKQPYEKKAAKLKEKYEKDIAAYRAKGKPDAAKKGVVKAEKSKKKKEEEDDEEDEEDEEEEEEEEDEDEEEDDDDE
# Variants of: B1
# Conditions: Rattus norvegicus, pH 7, Thermal, CD, HEPES 10 mM, structure 1HME, whole UniProt chain shown; for ddG of mutation (higher = less stable) / unfolding free energy: 20 °C
Variant,ddG of mutation (higher = less stable) (NiSO4 1 mM) [kcal/mol],unfolding free energy (NiSO4 1 mM),ddG of mutation (higher = less stable),unfolding free energy,Tm (NiSO4 1 mM) [°C],"change of melting temperature, mutant - wild type (higher = more stable) (NiSO4 1 mM) [°C]",unfolding enthalpy (van 't Hoff) (NiSO4 1 mM) [kcal/mol],Tm,unfolding enthalpy (van 't Hoff),"change of melting temperature, mutant - wild type (higher = more stable)"
G123H,-0.47,3.17 kcal/mol,0.34 kcal/mol,2.36 kcal/mol,44.9,4.3,36.8,–,–,–
N135H D139H,–,1.74 kcal/mol and 4.04 kcal/mol and 4.32 kcal/mol,–,1.69 kcal/mol and 2.42 kcal/mol and 1.67 kcal/mol,–,–,–,39 °C and 36.3 °C,35.8 kcal/mol and 32.3 kcal/mol,–
S121H,1.5,1.2 kcal/mol,1.85 kcal/mol,0.85 kcal/mol,34.4,-6.2,31.4,30.4 °C,28.2 kcal/mol,-10.2 °C
D140H,-0.95,3.65 kcal/mol,–,–,46.8,6.2,36.8,38.2 °C,33 kcal/mol,-2.4 °C
I122H,0,2.7 kcal/mol,1.23 kcal/mol,1.74 kcal/mol,41.9,1.3,34.2,36.2 °C,33.6 kcal/mol,-4.4 °C
N135H D140H,–,1.8 kcal/mol and 2.46 kcal/mol,1.3 kcal/mol and 1.2 kcal/mol,1.4 kcal/mol and 1.5 kcal/mol,–,–,–,34.3 °C and 35.3 °C,33.1 kcal/mol and 31.5 kcal/mol,-6.3 °C and -5.3 °C
D139H,-0.97,3.67 kcal/mol,-0.27 kcal/mol,2.97 kcal/mol,46.8,6.2,41,41.1 °C,38.3 kcal/mol,0.5 °C
